{
  "source": "the nanobody polyreactivity screen of Harvey et al. (2022)",
  "data": [
    {"test": "yeast display, Sf9 membrane polyspecificity reagent, FACS + sequencing; frameworks hold sequencing errors", "summary_of_the_method": "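Synthetic nanobody libraries on Saccharomyces cerevisiae BJ5465 were galactose-induced for 36–48 hours, stained 1 hour at 4 °C with 10% biotinylated, detergent-solubilized Sf9 membrane reagent and enriched on streptavidin microbeads. FACS then separated cells into low and high (top ~1%) gates by anti-HA (expression) and streptavidin (reagent binding) fluorescence. Genes were colony-PCR amplified, MiSeq 2 × 250 sequenced and CDR-length filtered. A clone's polyreactivity label is that of its gate of origin.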", "values": [
      {"sequence": "QVQLVESGGGLVQAGGSLRLSGAASGRIFGSYARGWYRQAPGKEREFVAGIRSVGSTNYADSVKGRFTISRDNAKNTVYLQMNSLKPEDTAVSYCASRLWHVSYAGQGGDYWGKGTQVTVSS", "polyreactivity (PSR sort gate)": "low polyreactivity"},
      {"sequence": "QVQLVESGGGLVQAGGSLRLSGAASGRTFKHYVMGWYRQAPGKARELVAAYRSGGRTNYADSVKGRFTISRDNAKNTVYLQMNRVKPADTAVYYCAARYFSQYQGAGYDSWGQGTQVTVSS", "polyreactivity (PSR sort gate)": "high polyreactivity"},
      {"sequence": "QVQLVESGGGLVQAGGSLRLSGDATGLIFNKYAMGWYRQAPGKERELVAVISFRGDGTHYADSVKGRFTISRDNAKYTVYLQMNSLKPEDTAVYYCNARTSIYGRRLYDYWGQGTQVTVSS", "polyreactivity (PSR sort gate)": "high polyreactivity"},
      {"sequence": "QVQLVESGGGLVQAGGSLRLSGSASGRTFSQYVMRWYRQAPGQERELVAAISKRGGRTYYADSVQGRFTISRDNAKNTVYLQMNSLNPEDTAVYYCNDVYRYYPFDYWGQGTQVTVSS", "polyreactivity (PSR sort gate)": "high polyreactivity"},
      {"sequence": "QVQLVESGGGLVQAGGSLRLSRAASGFTWSYAMGWYRQAPGKERELVATISDGVSTNYADSVKGRFTISRDNAKNTVYLQRNSLKPEDTAVYYCAAEIPRRWASFATLWYDYWGQGTQVTVSS", "polyreactivity (PSR sort gate)": "low polyreactivity"},
      {"sequence": "QVQLVESGGGLVQAGGSLRLSRAASGRTFYGYAMGWYRQAPGKESELVARIRSGGSTNYADSVKGRFTISRDNAKNTVYLLMNSLIPEDTAVFYCAARPGAAGYKYYYWGQGTQVTVSS", "polyreactivity (PSR sort gate)": "high polyreactivity"},
      {"sequence": "QVQLVESGGGLVQAGGSLRLSSAASARIFFKNTKGWYRPAPGKERELVAAITSSGSSTYYADSVKGRFTISRDNAKKTVYLQMNSLKPEDTAVYYCNALTWDHSRTGVDYWGQGTQVTVSS", "polyreactivity (PSR sort gate)": "low polyreactivity"},
      {"sequence": "QVQLVESGGGLVQAGGSLRLSSAASGFIFGAYAMGWYRQAPGKERELVAANSSRGGNTYYADSVKGRFTISRDNAKNTVYLQMNSLKPEDPAVYDCNAVGYAPYLYVPPPYEYWGQGTQVTVSS", "polyreactivity (PSR sort gate)": "high polyreactivity"},
      {"sequence": "QVQLVESGGGLVQAGGSLRLSSAASGFIFGSNAMGWYRQAPGKERELVAAISRSGGSTYYADSVKGRFTISRDNAKNTVYLQMNSLKPEDTAVYYCASYLYKSRYLPEYDYWGQGTQVTVSS", "polyreactivity (PSR sort gate)": "high polyreactivity"},
      {"sequence": "QVQLVESGGGLVQAGGSLRLSSAASGFIFTWYAMGWYIQAPGKERELVAAISSSGGRTYYADSVKGRFTISRDNAKNTVYLQMNSLKPEDSAVYYCTAVKFIRQHSEYDYWGQGTLVTVSS", "polyreactivity (PSR sort gate)": "high polyreactivity"},
      {"sequence": "QVQLVESGGGLVQAGGSLRLSSAASGFIFYQYAMGWYRQAPGKERELVAAISKSGGNTYYADSVKGRFTISRDNAKNTVYLQMNSLKPEDSAVYYCAADRGQRGMYYWGQGTQVSVSS", "polyreactivity (PSR sort gate)": "high polyreactivity"},
      {"sequence": "QVQLVESGGGLVQAGGSLRLSSAASGFTFASYAMGWYRQAPGKERELVAAIDSDDSTNYADSVKGRFTISRDNAKNTVYLHMNSLKPEDTSVYYCAADEGPYYGIYEYYYWGQGTQVTVSS", "polyreactivity (PSR sort gate)": "high polyreactivity"},
      {"sequence": "QVQLVESGGGLVQAGGSLRLSSAASGFTFAYNDLGWSRQAPGKERELVATITNSGASTSYADSEKGRFTISRDNAKNTVYLQMNSLKPEDTAVYYCNVGLWRYVRFTGRYYPYDYWGQGTQVTVSS", "polyreactivity (PSR sort gate)": "high polyreactivity"},
      {"sequence": "QVQLVESGGGLVQAGGSLRLSSAASGFTFVINDMGWYRPAPGKERELVADITSGGDTYYADSVKGRFTISRDNAKNTVYLQMNSLKPEDTAVYYCAADIYPDWIYLLYGYWGQGTQVTVSS", "polyreactivity (PSR sort gate)": "low polyreactivity"},
      {"sequence": "QVQLVESGGGLVQAGGSLRLSSAASGFTLYYYTMGWYRQAPGKERELVAAITSGGDTYYADSVKGRFTISRDNAKNTVYLHMHSLKPEDTAVYYCAADYGTQYGEYTYYDYDYWGKGTQVTVSS", "polyreactivity (PSR sort gate)": "low polyreactivity"},
      {"sequence": "QVQLVESGGGLVQAGGSLRLSSAASGITFATYAMGWYRQAPGKERELVAAISSSTGSTYYADSVKGRFTISRDNAKNTVYLQMNSLKPEDTAVYYCAAVRTQQYDYWGQGTQVTVSS", "polyreactivity (PSR sort gate)": "low polyreactivity"},
      {"sequence": "QVQLVESGGGLVQAGGSLRLSSAASGITFAYYAMGWYRLAPGTVRELVAAISSTGSSTYYADSVKGRFTISRDNAKNTVYLQMNSLKPEDTAVYYCAARVHYRGIVRYDYWGQGTQVTVSS", "polyreactivity (PSR sort gate)": "high polyreactivity"},
      {"sequence": "QVQLVESGGGLVQAGGSLRLSSAASGITFKAYAMGWYRHAPGKERELVAAISGSGGATYYADSVEGRFTISRDNEKNTVYLQMISLKPEVTAVYYCAARAVSLTGYRFGYWGQGTQVTVSS", "polyreactivity (PSR sort gate)": "high polyreactivity"},
      {"sequence": "QVQLVESGGGLVQAGGSLRLSSAASGITFRFYSMGWYRQAPGKEREFVAAISTRGGRTYYADSVKGRFTISRDNAKNTVYLQMKSLKPEDTAVYYFAADFYYRTVATVTSVARYDYWGQGTQVTVSS", "polyreactivity (PSR sort gate)": "high polyreactivity"},
      {"sequence": "QVQLVESGGGLVQAGGSLRLSSAASGITFRYYTMGWYRQAPGKERELVAAITWSGGSTYYADSVKGRFTISRDNAKNTVYLQMNSLKPEDTAVYYGAADSYRFRYSGYDYWGQGTQVTVSS", "polyreactivity (PSR sort gate)": "high polyreactivity"},
      {"sequence": "QVQLVESGGGLVQAGGSLRLSSAASGLIFSVNAMGWYRQAPGKESEMIAAISKSGGRTYYADSVKGRFTISRDNAKNTVYLQMNSLKPEDTAVYYCAKRSRWNYKGYGTCGYYWGQGTQVTVSS", "polyreactivity (PSR sort gate)": "high polyreactivity"},
      {"sequence": "QVQLVESGGGLVQAGGSLRLSSAASGLIFYDNMGWSRQAPGKERELDAAISSSGGSTSDADSVKGRFTISRDNAKNTVYLQMNSLKPEDTAVYYCAADSYPDYLGFVGFDYWGQGTQVTVSS", "polyreactivity (PSR sort gate)": "low polyreactivity"},
      {"sequence": "QVQLVESGGGLVQAGGSLRLSSAASGLIFYWYAMGWYRQAPGKERELVAAISSAGSTNYADSVKGRFTISRDNAKNTVYLQMNSLKPEDTAVYYCAKGGYSPKSVKYYDYWGQGTQVTVSS", "polyreactivity (PSR sort gate)": "low polyreactivity"},
      {"sequence": "QVQLVESGGGLVQAGGSLRLSSAASGLTFALYAMGWYRQAPGKERELVATISRGASTNYADSVKGRFTISRDNTKNTVYLQMNSLKPEDTAVYYWAVALRSTPRTREVRPSPRVYYWGQGTQVTVSS", "polyreactivity (PSR sort gate)": "high polyreactivity"},
      {"sequence": "QVQLVESGGGLVQAGGSLRLSSAASGNIFKSYTMGWYRQAPGKERELVAAITSGGRTNYGDSVKGRFTISRDNAKNTVYLQMNSLKPEDTAVYYCNAYKVFWVSIRYKFDYWGQGTQVTVSS", "polyreactivity (PSR sort gate)": "high polyreactivity"},
      {"sequence": "QVQLVESGGGLVQAGGSLRLSSAASGRIFAYNAMGWYRQAPGKEREFVAAITLGTGRTYYADSVKGRFTISRDNAKNTDYLQMNSLKAEDTAVYYCAARRVRGDVDYWYIYDYWGQGTQVTVSS", "polyreactivity (PSR sort gate)": "high polyreactivity"},
      {"sequence": "QVQLVESGGGLVQAGGSLRLSSAASGRIFDANDMGWYRQAPGQERELVAVISSRGGSTYYADSVKGRFTISRDNAKNTVDLQMNSLKPEEAAVYYCAKGLSVAGYDYWGQGTQVTVSS", "polyreactivity (PSR sort gate)": "low polyreactivity"},
      {"sequence": "QVQLVESGGGLVQAGGSLRLSSAASGRIFIRNAMGWYRQAPGKERELVAAISWSGGRTYYADSVKGRFTISRDNAKNTVYLQMNSLKPEDTAVYYCAALRYAFQYGLSYYWGQGTQVTVSS", "polyreactivity (PSR sort gate)": "high polyreactivity"},
      {"sequence": "QVQLVESGGGLVQAGGSLRLSSAASGRIFKKNSMGWYRQAPGKERELVAAINWTGGSTYYADSVKGRFTISRDNAMNTVYLQLNSLKPEDTAFYYCAVGVYPSYRGPTFSTRRDYWGQGTQVTVSS", "polyreactivity (PSR sort gate)": "low polyreactivity"},
      {"sequence": "QVQLVESGGGLVQAGGSLRLSSAASGRIFKYYVMGWYRQAPGKEREFVAAISGRGGRTYYADSVKGRFTISRDNAKNTVYLQMNSLKPEDTAVYYCATERQDRGPLGYNYWGQGTQVTVSS", "polyreactivity (PSR sort gate)": "high polyreactivity"},
      {"sequence": "QVQLVESGGGLVQAGGSLRLSSAASGRIFRKYAMGWYRQAPGKERELVAAISGSGVSTYYADSVKGRFTISRDNAKNTVYLQMNSLKPEDTAVYYCNARIILRGYKSYRYDYWGQGTQVTVSS", "polyreactivity (PSR sort gate)": "high polyreactivity"},
      {"sequence": "QVQLVESGGGLVQAGGSLRLSSAASGRIFSINAMGWYSQAPGKERELVATISWRGGSTYYADSVKGRFTISRDNAKNTVYLQMNSLKPEDTAVYYCAAKYPYYSSYAYGYWGQGTQVTVSS", "polyreactivity (PSR sort gate)": "high polyreactivity"},
      {"sequence": "QVQLVESGGGLVQAGGSLRLSSAASGRIFTYYTMGWSRQAPGKERELVAAISARGGNTYYADSVKGRFTISRDNAKNTVYLQMNSLKPEDTAVYYCAAGWVTSRTYYTHQIRNPLDYWGQGTQVTVSS", "polyreactivity (PSR sort gate)": "high polyreactivity"},
      {"sequence": "QVQLVESGGGLVQAGGSLRLSSAASGRIFYGYTMGWYRQAPGKERELVAAITQSSGSTYYADSVKGRFTISRDNAKNTVYLQMNSLKPEDTAVYYCARDPGRRYSYTYDYWGQGTQVTVSS", "polyreactivity (PSR sort gate)": "low polyreactivity"},
      {"sequence": "QVQLVESGGGLVQAGGSLRLSSAASGRIFYLNAMGWYRQAPGIERELVAAINTSGDSTYYADSVKGRFTISRDNAKNTVYLQMNSLKPEDTEVYYCAAYVIGPDHFIYDYWGQGTQVTVSS", "polyreactivity (PSR sort gate)": "low polyreactivity"},
      {"sequence": "QVQLVESGGGLVQAGGSLRLSSAASGRILKYYAMGWYRQAPGKERELVAAIGSGGSTYYADSVKGRFTISRDNAKNTVYLQMNSLKPDDTAVYYCNAEDQWGGYGYDYWGQGTQLTVSS", "polyreactivity (PSR sort gate)": "low polyreactivity"},
      {"sequence": "QVQLVESGGGLVQAGGSLRLSSAASGRILPVNTMGWYRQAPGKERELVAVITRSGGRTYYADSVKGRFTISRDYAKNTVYLQMNSLKPEDTAVYYCAADVGFRWYRYTAGPLEYDYWGQGTQVTVSS", "polyreactivity (PSR sort gate)": "high polyreactivity"},
      {"sequence": "QVQLVESGGGLVQAGGSLRLSSAASGRILQFNAMGWYRQAPGKDRELVAAITSGGSTNYADSVKGRFTISRDNAKNTVYLQMNSLKPEVTAVYYCAAQSLLWQRRLRGYYYWGQGTQVTVSS", "polyreactivity (PSR sort gate)": "high polyreactivity"},
      {"sequence": "QVQLVESGGGLVQAGGSLRLSSAASGRISQNAIGWYRQAPGKERELVAAITFSGGSTYYADSVKGRFTISRDNAKNTVFLQMNSLKPEDTAVYYCAAEDRPLYWRFPDEMDYWGQGTQVTVSS", "polyreactivity (PSR sort gate)": "low polyreactivity"},
      {"sequence": "QVQLVESGGGLVQAGGSLRLSSAASGRLFGLNALGWYRQAPGKERELVASSTYSGGSTYYADSVKGRFTISRDNAKNTVYLQMNSLKQEDTAVYYCAGDSWYYWYSTYDYWGQGTQETVSS", "polyreactivity (PSR sort gate)": "high polyreactivity"},
      {"sequence": "QVQLVESGGGLVQAGGSLRLSSAASGRTFAYYAMGWYRQAPGKERELVAAISSAGRTYYADSVKGRFTISRDNAKNTVYLQMNSLKTEDTAVYYCAAEWYYYVIWLYEYWGQGTQVTVSS", "polyreactivity (PSR sort gate)": "high polyreactivity"},
      {"sequence": "QVQLVESGGGLVQAGGSLRLSSAASGRTFGRYAMGWYRQAPGKERELVAAITRSGSSTYYADSVKGRFTISRDNAKNTVYLQMNSLKPEDTAVYYCAALYGPFYSTGEYWGQGTQVTVSS", "polyreactivity (PSR sort gate)": "high polyreactivity"},
      {"sequence": "QVQLVESGGGLVQAGGSLRLSSAASGRTFGYNAMGWYRPATGKERELVAAISWSGARTYYADSVKGRFTISRDIAKNTVYLQLNSLTPEDTAVYYCAAGIDGYYWPFFRNYDYWGQGTQVTVSS", "polyreactivity (PSR sort gate)": "high polyreactivity"}
    ]}
  ]
}
